Results taken from article doi:10.1101/2024.07.24.604550 (bioRxiv, 2024).

B1: MBP-ECT1 (natural protein, Arabidopsis, UniProt Q3MK94 1-428, looked up)
chain: MAGAASSDRLVTSFPLLDTADLFQDLSLGSDANEVPMNFTKGSFQHPYGHAPYGASSHGSERRPNMNAGNLLNGGDSIGSYPWGYIPANYPSGGYPDPRFGYDRNSNHSSFSHLMNPHSSQEVPSFDQLGYNDHLYSNHGLYGLYGNVIDSGHAYGTFGYDSWKLGRGWYPVDGYRKTRSFNHGRGYSDEKADRLNELCRGPRSSDFKNPQVLNSSMLDAMKQDVSAVDLQRYNGENFPESFVKAKFFVIKSYSEDDVHNCIKYGAWSSTPTGNKKLNAAYYEAKENSQECPVYLLFSVNASGQFVGLAEMVGPVDFNKTMEYWQQDKWIGCFPVKWHIIKDIPNSLLRHITLANNENKPVTNSRDTQEVNLEHGTKIIKIFKEYMSKTCILDDYKFYETRQKIIRDKKIKQKKQALDGASGETINLS

How the values were obtained:
GST-ECT1 [1] = target: T1, GST-ECT1 (Arabidopsis, UniProt Q3MK94 1-428); assay: pull-down
T1 sequence (looked up): B1 chain

GST-ECT1 [2] = target: T2, GST-ECT1 (Arabidopsis thaliana (Col-0), UniProt Q3MK94 1-428); assay: EMSA
T2 sequence: B1 chain

Binder | binding result (GST-ECT1 [1]) | binding result (GST-ECT1 [2])
B1 | binds | –
UCUUUUGUAAGACUUGUACUCUUUA (ssRNA) [UGUAA RNA (unmodified)] | – | no binding
UCUUUUGUAAGACUUGUACUCUUUA (ssRNA, m6A at position 9) [UGUm6AA RNA] | – | binds
